Laboratory results from US20190175609A1 (Novartis, published 2019).
Changes are numbered by the printed parent chain. One block for each binder: values may come before it.

How the values were obtained:
[1] = molecular target: T1, Programmed Death 1 (PD-1) (UniProt Q15116 25-167, limits assumed); test: rank among the 16 humanized clones by FACS data (order agrees with the 200 ng/ml bars of FIGURE 4, 1 = highest)
[2] = molecular target: T2, PD-1 on PD-1-expressing 300.19 cells (UniProt Q15116 25-288, limits assumed); test: rank among the 16 humanized clones in competition binding against labeled murine mAb BAP049, 1st exp. (FIGURE 6A)
T2 construct: whole, on cells

[3] = molecular target: T2, PD-1 on PD-1-expressing 300.19 cells; test: rank among the 16 humanized clones in competition binding against labeled murine mAb BAP049, 2nd exp. (FIGURE 6B)
[4] = molecular target: T1, Programmed Death 1 (PD-1); test: FACS ligand blocking: mAb titrated, signal of ligand-Ig bound to PD-1; legend paragraph 46 names PD-L1-Ig and PD-L2-Ig as blocked ligands for FIG. 8A; cells not named

T2 sequence (Q15116 25-288 limits assumed): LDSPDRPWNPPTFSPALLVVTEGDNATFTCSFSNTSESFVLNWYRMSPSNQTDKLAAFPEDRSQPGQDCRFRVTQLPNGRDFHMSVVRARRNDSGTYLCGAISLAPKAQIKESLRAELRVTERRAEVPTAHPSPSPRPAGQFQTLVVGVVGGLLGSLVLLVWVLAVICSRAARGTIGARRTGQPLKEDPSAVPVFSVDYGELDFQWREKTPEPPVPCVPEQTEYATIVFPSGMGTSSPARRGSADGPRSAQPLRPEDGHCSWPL
T1 sequence (Q15116 25-167 limits assumed): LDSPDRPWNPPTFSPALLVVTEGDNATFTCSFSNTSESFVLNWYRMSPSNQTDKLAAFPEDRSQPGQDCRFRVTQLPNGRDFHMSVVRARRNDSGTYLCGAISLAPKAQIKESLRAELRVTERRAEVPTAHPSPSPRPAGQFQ

B1: BAP049-hum03 (antibody, human IgG4 S228P, kappa, V domains shown)
VH: EVQLVQSGAEVKKPGESLRISCKGSGYTFTTYWMHWIRQSPSRGLEWLGNIYPGTGGSNFDEKFKNRFTISRDNSKNTLYLQMNSLRAEDTAVYYCTRWTTGTGAYWGQGTTVTVSS
VL: DIQMTQSPSSLSASVGDRVTITCKSSQSLLDSGNQKNFLTWYQQKPGQAPRLLIYWASTRESGIPPRFSGSGYGTDFTLTINNIESEDAAYYFCQNDYSYPYTFGQGTKVEIKR
notes: also called Clone No. 3
Ranking FACS data [1]: 7
Competition Binding 1st exp. [2]: 8
Competition Binding 2nd exp. [3]: 14

B3: BAP049-hum02 (antibody, human IgG4 S228P, kappa, V domains shown)
VH: EVQLVQSGAEVKKPGESLRISCKGSGYTFTTYWMHWVRQATGQGLEWMGNIYPGTGGSNFDEKFKNRVTITADKSTSTAYMELSSLRSEDTAVYYCTRWTTGTGAYWGQGTTVTVSS
VL: B1 VL
notes: also called Clone No. 2
Ranking FACS data [1]: 6
Competition Binding 1st exp. [2]: 3
Competition Binding 2nd exp. [3]: 2

B5: Chi mAb (Tyr) (antibody, human IgG4 S228P, kappa, V domains shown)
VH: QVQLQQSGSELVRPGASVKLSCKASGYTFTTYWMHWVRQRPGQGLEWIGNIYPGTGGSNFDEKFKNRTSLTVDTSSTTAYMHLASLTSEDSAVYYCTRWTTGTGAYWGQGTTVTVSS
VL: DIVMTQSPSSLTVTAGEKVTMSCKSSQSLLDSGNQKNFLTWYQQKPGQPPKLLIFWASTRESGVPDRFTGSGSVTDFTLTISSVQAEDLAVYYCQNDYSYPYTFGQGTKVEIKR
notes: also called BAP049-chi-Y; Chi (Tyr)
IC50 (read off the curve) [4]: ~0.8 µg/mL

B6: murine anti-PD-1 mAb BAP049 (antibody, V domains shown)
VH: B5 VH with T112L, S117A
VL: DIVMTQSPSSLTVTAGEKVTMSCKSSQSLLDSGNQKNFLTWYQQKPGQPPKLLIFWASTRESGVPDRFTGSGSVTDFTLTISSVQAEDLAVYYCQNDYSYPCTFGGGTKLEIK
notes: the murine constant regions are not described; also called Mu mAb; murine mAb BAP049
IC50 (read off the curve) [4]: ~0.6 µg/mL

B7: BAP049-hum10 (antibody, human IgG4 S228P, kappa)
heavy: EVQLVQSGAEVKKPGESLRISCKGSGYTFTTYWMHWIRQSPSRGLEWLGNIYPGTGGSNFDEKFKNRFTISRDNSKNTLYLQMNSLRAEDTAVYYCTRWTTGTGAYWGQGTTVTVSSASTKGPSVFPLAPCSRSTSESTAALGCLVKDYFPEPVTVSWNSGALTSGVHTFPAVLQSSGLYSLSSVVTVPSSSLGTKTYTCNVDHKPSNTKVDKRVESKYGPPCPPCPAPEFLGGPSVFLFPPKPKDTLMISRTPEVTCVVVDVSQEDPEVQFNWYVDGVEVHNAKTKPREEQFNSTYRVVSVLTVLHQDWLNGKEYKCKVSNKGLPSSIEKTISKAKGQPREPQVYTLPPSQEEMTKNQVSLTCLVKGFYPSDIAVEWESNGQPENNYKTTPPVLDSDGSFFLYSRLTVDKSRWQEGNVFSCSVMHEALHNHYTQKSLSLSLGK
light: EIVLTQSPATLSLSPGERATLSCKSSQSLLDSGNQKNFLTWYQQKPGQAPRLLIYWASTRESGVPSRFSGSGSGTDFTFTISSLEAEDAATYYCQNDYSYPYTFGQGTKVEIKRTVAAPSVFIFPPSDEQLKSGTASVVCLLNNFYPREAKVQWKVDNALQSGNSQESVTEQDSKDSTYSLSSTLTLSKADYEKHKVYACEVTHQGLSSPVTKSFNRGEC
notes: Humanized mAb
Ranking FACS data [1]: 7
Competition Binding 1st exp. [2]: 6
Competition Binding 2nd exp. [3]: > 4
IC50 (read off the curve) [4]: ~1 µg/mL

B8: BAP049-hum08 (antibody, human IgG4 S228P, kappa)
heavy: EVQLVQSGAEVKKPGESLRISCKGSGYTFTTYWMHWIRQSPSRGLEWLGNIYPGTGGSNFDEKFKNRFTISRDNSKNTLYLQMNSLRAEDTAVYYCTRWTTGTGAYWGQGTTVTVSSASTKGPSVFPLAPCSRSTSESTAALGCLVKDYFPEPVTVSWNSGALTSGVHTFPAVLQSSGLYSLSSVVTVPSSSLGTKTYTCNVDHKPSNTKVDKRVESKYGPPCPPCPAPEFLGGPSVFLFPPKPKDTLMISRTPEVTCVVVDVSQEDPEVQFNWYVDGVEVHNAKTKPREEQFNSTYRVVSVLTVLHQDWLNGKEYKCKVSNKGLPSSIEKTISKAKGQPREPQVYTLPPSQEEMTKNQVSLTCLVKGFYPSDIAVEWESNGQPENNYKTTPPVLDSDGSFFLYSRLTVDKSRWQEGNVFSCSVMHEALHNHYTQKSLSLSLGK
light: B7 light with A9D, T10F, L11Q, L13V, S14T, G16K, R18K, A19V, L21I, S22T
notes: Humanized mAb
Ranking FACS data [1]: 7
Competition Binding 1st exp. [2]: 7
Competition Binding 2nd exp. [3]: 4

B9: BAP049-hum11 (antibody, human IgG4 S228P, kappa)
heavy: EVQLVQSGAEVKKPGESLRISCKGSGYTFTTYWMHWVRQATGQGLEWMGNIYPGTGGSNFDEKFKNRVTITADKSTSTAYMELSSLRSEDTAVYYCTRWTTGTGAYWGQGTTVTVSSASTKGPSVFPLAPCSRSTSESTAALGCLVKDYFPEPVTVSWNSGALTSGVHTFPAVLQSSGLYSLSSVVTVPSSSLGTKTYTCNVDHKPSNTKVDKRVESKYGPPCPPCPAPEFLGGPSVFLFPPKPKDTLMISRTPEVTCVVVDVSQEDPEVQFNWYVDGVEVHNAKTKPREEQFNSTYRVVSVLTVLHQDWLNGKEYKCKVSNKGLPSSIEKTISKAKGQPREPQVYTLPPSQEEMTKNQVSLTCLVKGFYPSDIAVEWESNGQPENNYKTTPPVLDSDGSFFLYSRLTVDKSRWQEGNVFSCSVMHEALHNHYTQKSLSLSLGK
light: B7 light
notes: Humanized mAb
Ranking FACS data [1]: 6
Competition Binding 1st exp. [2]: 4
Competition Binding 2nd exp. [3]: > 4

B10: BAP049-hum01 (antibody, human IgG4 S228P, kappa, V domains shown)
VH: B3 VH
VL: EIVLTQSPATLSLSPGERATLSCKSSQSLLDSGNQKNFLTWYQQKPGQAPRLLIYWASTRESGVPSRFSGSGSGTEFTLTISSLQPDDFATYYCQNDYSYPYTFGQGTKVEIKR
notes: Humanized mAb
Ranking FACS data [1]: 2
Competition Binding 1st exp. [2]: 7
Competition Binding 2nd exp. [3]: 2
IC50 (read off the curve) [4]: ~1 µg/mL

Further lines, with some results ahead:

Competition Binding 1st exp. [2]: 8
Competition Binding 2nd exp. [3]: 16
B2: BAP049-hum12 (antibody, human IgG4 S228P, kappa, V domains shown)
VH: B3 VH
VL: DIQMTQSPSSLSASVGDRVTITCKSSQSLLDSGNQKNFLTWYLQKPGQSPQLLIYWASTRESGVPSRFSGSGSGTDFTFTISSLEAEDAATYYCQNDYSYPYTFGQGTKVEIKR
notes: also called Clone No. 12
Ranking FACS data [1]: 3

Competition Binding 1st exp. [2]: 1
Competition Binding 2nd exp. [3]: 1
B4: BAP049-hum13 (antibody, human IgG4 S228P, kappa)
heavy chain: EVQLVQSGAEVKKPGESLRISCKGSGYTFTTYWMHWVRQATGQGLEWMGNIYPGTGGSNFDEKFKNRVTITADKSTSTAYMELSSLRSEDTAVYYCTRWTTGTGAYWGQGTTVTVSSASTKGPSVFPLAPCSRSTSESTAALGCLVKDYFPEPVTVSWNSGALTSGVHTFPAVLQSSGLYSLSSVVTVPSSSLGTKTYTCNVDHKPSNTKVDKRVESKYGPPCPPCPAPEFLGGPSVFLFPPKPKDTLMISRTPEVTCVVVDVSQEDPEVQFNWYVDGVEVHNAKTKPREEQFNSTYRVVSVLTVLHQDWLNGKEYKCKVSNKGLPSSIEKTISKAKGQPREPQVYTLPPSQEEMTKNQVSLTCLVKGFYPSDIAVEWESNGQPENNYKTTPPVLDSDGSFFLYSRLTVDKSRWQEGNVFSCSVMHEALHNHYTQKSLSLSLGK
light chain: DVVMTQSPLSLPVTLGQPASISCKSSQSLLDSGNQKNFLTWYQQKPGKAPKLLIYWASTRESGVPSRFSGSGSGTDFTFTISSLEAEDAATYYCQNDYSYPYTFGQGTKVEIKRTVAAPSVFIFPPSDEQLKSGTASVVCLLNNFYPREAKVQWKVDNALQSGNSQESVTEQDSKDSTYSLSSTLTLSKADYEKHKVYACEVTHQGLSSPVTKSFNRGEC
notes: also called Clone No. 13
Ranking FACS data [1]: 6

Competition Binding 1st exp. [2]: 15
Competition Binding 2nd exp. [3]: 15
B11: BAP049-hum04 (antibody, human IgG4 S228P, kappa, V domains shown)
VH: B1 VH
VL: B10 VL with Q48K, R51K, E76D, L79F, D87E, F89I
notes: also called Clone No. 4
Ranking FACS data [1]: 14

Competition Binding 1st exp. [2]: 5
Competition Binding 2nd exp. [3]: > 4
B12: BAP049-hum05 (antibody, human IgG4 S228P, kappa, V domains shown)
VH: B3 VH
VL: B10 VL with Q48K, R51K, E76D, L79F, D87E, F89I
notes: Humanized mAb
Ranking FACS data [1]: 5
IC50 (read off the curve) [4]: ~1 µg/mL

Competition Binding 1st exp. [2]: 2
Competition Binding 2nd exp. [3]: 4
B13: BAP049-hum09 (antibody, human IgG4 S228P, kappa)
heavy: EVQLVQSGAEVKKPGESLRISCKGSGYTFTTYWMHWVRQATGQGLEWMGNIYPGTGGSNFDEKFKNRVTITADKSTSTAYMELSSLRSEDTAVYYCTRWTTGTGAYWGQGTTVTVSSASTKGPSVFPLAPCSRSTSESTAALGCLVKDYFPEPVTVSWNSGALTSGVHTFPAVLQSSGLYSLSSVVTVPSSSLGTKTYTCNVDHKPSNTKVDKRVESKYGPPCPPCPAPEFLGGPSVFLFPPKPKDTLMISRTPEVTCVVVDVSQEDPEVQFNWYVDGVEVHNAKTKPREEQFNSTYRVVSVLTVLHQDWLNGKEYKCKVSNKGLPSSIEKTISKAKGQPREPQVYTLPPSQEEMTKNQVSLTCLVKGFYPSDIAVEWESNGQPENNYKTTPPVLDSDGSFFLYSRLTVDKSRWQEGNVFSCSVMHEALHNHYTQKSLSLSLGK
light: B7 light with A9D, T10F, L11Q, L13V, S14T, G16K, R18K, A19V, L21I, S22T
notes: Humanized mAb
Ranking FACS data [1]: 7

Competition Binding 1st exp. [2]: 16
Competition Binding 2nd exp. [3]: 15
B14: BAP049-hum16 (antibody, human IgG4 S228P, kappa, V domains shown)
VH: B1 VH with I37V, S40A, S42G, R43Q, L48M
VL: EIVLTQSPDFQSVTPKEKVTITCKSSQSLLDSGNQKNFLTWYQQKPGQAPRLLIYWASTRESGVPSRFSGSGSGTDFTFTISSLEAEDAATYYCQNDYSYPYTFGQGTKVEIKR
notes: also called Clone No. 16
Ranking FACS data [1]: 15

Competition Binding 1st exp. [2]: 7
Competition Binding 2nd exp. [3]: 15
B15: BAP049-hum14 (antibody, human IgG4 S228P, kappa)
heavy chain: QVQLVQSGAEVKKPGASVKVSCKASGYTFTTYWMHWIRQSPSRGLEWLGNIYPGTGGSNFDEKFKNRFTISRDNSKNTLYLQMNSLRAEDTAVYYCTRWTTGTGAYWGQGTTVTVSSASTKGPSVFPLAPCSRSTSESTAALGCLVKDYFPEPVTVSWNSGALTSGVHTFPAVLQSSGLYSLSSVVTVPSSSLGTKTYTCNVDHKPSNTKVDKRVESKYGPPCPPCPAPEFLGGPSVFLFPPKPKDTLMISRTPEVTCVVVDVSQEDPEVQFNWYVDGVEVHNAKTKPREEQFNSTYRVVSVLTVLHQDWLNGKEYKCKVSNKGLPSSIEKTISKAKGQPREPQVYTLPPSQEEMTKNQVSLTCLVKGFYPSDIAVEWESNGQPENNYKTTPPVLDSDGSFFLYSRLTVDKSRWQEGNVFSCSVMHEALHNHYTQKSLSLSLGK
light chain: B7 light
notes: also called Clone No. 14
Ranking FACS data [1]: 16

Competition Binding 1st exp. [2]: 7
Competition Binding 2nd exp. [3]: 15
B16: BAP049-hum15 (antibody, human IgG4 S228P, kappa)
heavy chain: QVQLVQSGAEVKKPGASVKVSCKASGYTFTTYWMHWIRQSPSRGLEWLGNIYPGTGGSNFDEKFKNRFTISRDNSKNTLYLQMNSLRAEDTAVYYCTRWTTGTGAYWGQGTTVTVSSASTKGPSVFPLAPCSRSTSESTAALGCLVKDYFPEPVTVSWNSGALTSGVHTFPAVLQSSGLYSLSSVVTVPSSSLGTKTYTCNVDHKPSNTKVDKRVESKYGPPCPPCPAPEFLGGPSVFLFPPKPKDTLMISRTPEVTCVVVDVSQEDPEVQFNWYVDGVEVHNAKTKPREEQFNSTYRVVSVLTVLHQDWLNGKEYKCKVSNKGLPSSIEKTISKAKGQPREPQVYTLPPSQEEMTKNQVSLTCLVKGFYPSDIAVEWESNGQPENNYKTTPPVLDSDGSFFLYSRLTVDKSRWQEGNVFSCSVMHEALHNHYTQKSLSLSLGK
light chain: B7 light with A9D, T10F, L11Q, L13V, S14T, G16K, R18K, A19V, L21I, S22T
notes: also called Clone No. 15
Ranking FACS data [1]: 6

Competition Binding 1st exp. [2]: 7
Competition Binding 2nd exp. [3]: 3
B17: BAP049-hum06 (antibody, human IgG4 S228P, kappa)
heavy chain: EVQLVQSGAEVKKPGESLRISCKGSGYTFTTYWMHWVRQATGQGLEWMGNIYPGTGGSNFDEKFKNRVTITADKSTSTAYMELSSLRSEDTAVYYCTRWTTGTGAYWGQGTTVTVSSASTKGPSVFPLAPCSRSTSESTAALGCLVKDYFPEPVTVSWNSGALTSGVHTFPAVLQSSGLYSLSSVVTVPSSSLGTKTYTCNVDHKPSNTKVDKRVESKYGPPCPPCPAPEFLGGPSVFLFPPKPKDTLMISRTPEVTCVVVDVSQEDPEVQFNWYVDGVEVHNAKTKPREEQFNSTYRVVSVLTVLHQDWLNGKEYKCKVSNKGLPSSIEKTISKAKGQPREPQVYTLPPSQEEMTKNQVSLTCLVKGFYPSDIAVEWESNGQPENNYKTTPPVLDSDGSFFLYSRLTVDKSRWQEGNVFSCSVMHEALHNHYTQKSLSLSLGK
light chain: B4 light chain with V2I, S7T, L15P, Q17E, K48Q, K51R
notes: also called Clone No. 6
Ranking FACS data [1]: 1

Competition Binding 1st exp. [2]: 7
Competition Binding 2nd exp. [3]: > 4
B18: BAP049-hum07 (antibody, human IgG4 S228P, kappa)
heavy chain: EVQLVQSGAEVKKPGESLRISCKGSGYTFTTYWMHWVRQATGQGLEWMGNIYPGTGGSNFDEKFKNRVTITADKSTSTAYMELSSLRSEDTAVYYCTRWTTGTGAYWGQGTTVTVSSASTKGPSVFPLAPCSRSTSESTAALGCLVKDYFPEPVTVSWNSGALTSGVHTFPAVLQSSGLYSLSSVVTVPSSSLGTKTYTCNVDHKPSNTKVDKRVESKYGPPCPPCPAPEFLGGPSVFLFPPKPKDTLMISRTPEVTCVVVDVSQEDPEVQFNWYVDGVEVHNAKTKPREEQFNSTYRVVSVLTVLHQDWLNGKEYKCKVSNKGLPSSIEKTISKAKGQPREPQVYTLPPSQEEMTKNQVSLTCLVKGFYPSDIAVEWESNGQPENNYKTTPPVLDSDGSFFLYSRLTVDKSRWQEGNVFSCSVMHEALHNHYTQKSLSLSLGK
light chain: B7 light with Q48K, R51K
notes: also called Clone No. 7
Ranking FACS data [1]: 4
